Data as given in a protein production outcome set (Wang et al. 2014).

Assay: label from the status in PepcDB records

| Sequence | protein production |
| --- | --- |
| MENRSHALLAGLFTLALLVAAALVAIWVGRDRAALKPYVIVSATSVSGLSAQSTVRYQGVPVGKVQSLGFNPDKPAQVRISIGVAPDTPITESTWAELGVQGVTGLGNIELRDDGTSTRRLASSAAMPATIPLRPGFFQRFEQRGGEILHNVEQVSARLERLLSNENVQATTATLQNIAAITTDLRQAATELRPALAQVPPLVDSLQAMSRNTGQAAQEIAGLAQAARQALARLDAPDGPLAMATRSMRDIAWAAARLDAQTLPAVSGMASSIDSAARSATTTLRRVGDTPQSLLFGPPPTVPGPGEPGFAGFGR | failed |
| MENWDLSSDEMQDGNAPELDVIEEHNPVTRDDENANPEEVVGDTRSPVQNILGKFEGDINKRLHIKRKRMETYIKDSFKDSNVKLEQLWKTNKQERKKINNKFCEQYITTFQKFDMDVQKFNEEQEKSVNNYQKEQQALKLSKCSQSQTLEAIKDMHENYMEGLMNLETNNYNMLFDVDGELRKEMSVFKKDLMKHTLKYSSSFPSSD | failed |
| MEPCLHPTLVDETSLVLYLDLARETGYRYVDVPFHWLEAEAERHGDAAVEAMFQRRGLVLANLGLPLNLYDSEPVFLRELSLLPDRARLCARLGARSVTAFLWPSMDEEPVRYISQLARRIRQVAVELLPLGMRVGLEYVGPHHLRHRRYPFVQSLADLKTFWEAIGAPNVGALVDSYHWYTAGEHEDDLAQLPPEKVVYVHINDTRDAPEDAHDGKRLLPGDGRIPLVPFLRGLYLAGYRGPVAAEVLHETPLDGTGESRARLVRERLEKLIALAKGEN | not failed |
| MEPHAESAAAGQAAPPEKRRASWFTRMGRVVRFAGQRADEQKLLQVASSLTFTTVLAIVPMLAVVLSLFTAFPVFQEFRVALEDFLANSLMPPSVSDNIMDYLNQFARQATRLTAIGGAFLIVTSLLLIMTIDKTFNDIWQVTRQRPLPQRALVYWAVITLGPVVAGASLWATSFVARESLGLVRDVPEAVSVAISFIPLVLTGLGFAALFVVVPNRRVYWKDALVGGFGTAIVLELMKAGFAYYLTRFPAYTVIYGAFATLPIFLLWIYLSWLAVLFGATVAASAPLIRLGRWEINRHAGAPFIDALGVLRVLHAAQGSRPAGRSANALAKRLRLHHDELNAVLEALEDMELVARTAEQRWVLTCDPRTTTLEPVFDRFLLDRGQPRLRDEPEIAAVAAGVLGQGPDPTLADLAGVAQNTDIGPAAAVLQLETGKK | failed |
| MEPSCTQNGMKPKLKISDLSRSLGPGIMMAAAAVGGSHLVASTKAGAIYGWEMLLLILAVNLLKYPFFRAGVQYTLGTGDSIIQGYHKLGRGYLWVFLVLSAISAVVNTAALLLFSASLLGYFLPFDLSLNVLSSIVLITCITILFAGHFKALDKLSKLIMATLTIATTIALGVAFSNGAVAPTDYQGPSVWSIASIGFLVITMGWMPAPIEISSITSMWLKRQCQTQKVTPQSALFDFNVGYIGTAILAVVFLSLGALVLYGSGIEFKASGIGFSHQLVGIYAATIGEWSRYLIAVIAFFCIFGSTITVIDGYSRAVSEAQLLLQRKPLNQPKHYNSWVMIVSVLAITIVTLFISSLMSMLDFAMIMAFITTPIFAALNYILVTKTELPDELRMGAKLKALSIVGLIYLFGFLAIFVWWKWLM | failed |
| MEQDASAKNPDIETENKGAISEEEALIQREYSLLIQDYLNSNHRRKVEKIDKAFHLAKDAHAGAKRRSGEPYILHPIAVARIVCQEIGLGSTSICCALLHDVVEDTEYTVEDMRDMFGDKVAQIVDGLTKISGEVFSNSSAQAENFRKLILTMNDDIRVILIKIADRLHNMRTLDSMLPAKQMKIAGETQYVYAPLAHRLGLFAIKSELEDLSFKYEHPQEYEAIKEKIRITEQHRLEMFEHFAAPLKQRFAGMDMSYEMKARVKSVYSIWKKMEKKGVPFEEIYDLFAVRIIFESSPTIPDKNRCWEIYSAITDIYRNRPDRIRDWVSNPKSNGYQALHLTVMGPDGEWVEVQIRSRRMDDIAEKGFAAHWKYKGDNVEEDSELEKWLSTIQEILENPNPNALDFLDTIKLNLFSNEVMVFTPKGEIKRLPQGATALDFAYSLHSDLGDHCIGAKVNHKLVPLSYVLNSGDQVEVLSSKSQQPTEEWLRYVTTARAKSKVDTFLRRKRRELINRGEERVVSVIRTSESMVSAELLDRIAAYFGFLNRETFFYAVGTGTVSLPESFKKLLQGEHSGNFLMRAIRSALKAGKSNKTSSPSGKPAEKEDKKAYNTKKTYILQEDEFSRNYQIAECCKPIPGDDAFGFINDDNTVVVHKRSCPIAMRLKSSFGNRILSTEWSLHSRTSFEAKLALKGIDSTGILTAVTQVISEDFNVGIKHIQLTAKDGIFEGQIHLLVHSSDDLLKICHQLRQNKYIQSVGRIS | failed |
| MEQDTQHVKPLQTKTDIHAVLASNGRIIYISANSKLHLGYLQGEMIGSFLKTFLHEEDQFLVESYFYNEHHLMPCTFRFIKKDHTIVWVEAAVEIVTTRAERTEREIILKMKVLEEETGH | failed |
| MEQHIGELIAHYGYFGIVIALAGGIVGLPIPDEFLLTFVGYNVSKGVMSGTAAFLSGLAGAMLGITLSYILGLKLGLPVLKKYGPKIRIKEHHIEKTHILFEKYGPFLLMIGYFIPGVRHLTAYFAGVSNLTLWRFCLYAYGGALIWISVFIGLGWKLGEKWRFVEYSLHHYGIWILLISAVVTCFVWLYIKKKKNR | failed |
| MEQIITDFISKWGYTAIFILILLENVLPVVPSEIILTFAGLLSVKSHLSIWTLLIIATIASFIGLLILYYICRLISEEKLYRFVDRHGKWMKLKSKDLKRANDWFKKYGAWAVFLCRFVPVLRVLITIPAGINRMNVIQFTTLSLIGTTIWNFALILLGRLLSDSFDALMNGIHTYSRIMYVIIIIAVIYFVIRYLMKRRRSVK | failed |
| MEQLQIGDIKVTWLKGGNTHLDGGAMFGVVPKVLWSRKYKHNDTNHIYLRTDPLLLQTKDGNMLIDSGIGNGKLNEKMKRNQGVTEESSVYESLEKLGLKPEDIDYVLMTHLHFDHASGLTKWEDDHLVPSFPNAKVYVSETEWNEMRNPNIRSRNTYWKENWEPIVDQVVTFQQEIEITDEIKMARTGGHSDGHAVIALESQGETMLHLADLLPTHAHQNVLWVMAYDDYPMTSIENKQKWMKYGAEKEAWFTFYHDAYYRAVKWNEEGHIVEKIERKTSIEA | failed |
| MEQQRSFQTETGGHLYLVPTPIGNLDDMTFRAVKTLTAVDLIAAEDTRNTQKLLNHFEITTKQISFHEHNTQERIPQLIAKLKQGMQIAQVSDAGMPSISDPGHELVNACIDAHIPVVPLPGANAGLTALIASGLAPQPFYFYGFLDRKPKDRKAEIAGLAQRPETLIFYEAPHRLKKTLQNLAAGFGDERPAVLCRELTKRYEEFLRGSLAELANWAATDTVRGEFVVLVGGNPAPTTAATTAVDLSEPIDVQVDRLIAAGEKPNDAIKEVAKLRGAKKQEIYRQYHHLDEE | not failed |
| MERAMEQLNRLTRSLRRARTVELPEDNETAVYTLMPMVMADQHRSVSELLSNSKFDVNYAFGRVKRSLLHIAANCGSVECLVLLLKKGANPNYQDISGCTPLHLAARNGQKKCMSKLLEYSADVNICNNEGLTAIHWLAVNGRTELLHDLVQHVTDVDVEDAMGQTALHVACQNGHKTTVQCLLDSGADINRPNVAGATPLYFACSHGQRDTAQILLLRGAKYLPDKNGVTPLDLCVQGGYGQTCEVLIQYHPRLFQTIVQMTQNEDLRENMLRQVLQHLSQQSESQYLKILTGLAEVATTNGHKLLSLSSSYEAQMKSLLRIVRIFCHVFRIGPSSPSNGMDMGYNGNKTPRSQVFKPLELLWHSLDEWLVLIATELMKNKEDSADITSILLKQKGQDQEASCISAFEPPGPGSYERLSTGPGESKPDVLAGKQEASADCQDVISVTANRLSAVIQAFYMCCSCQMPPGMTSPRFIEFVCKHDEVLKCFVNRNPKIIFDHFHFLLECPELMSRFMHIIKAQPFKDRCEWFYEHLHSGQPDSDMVHRPVSENDILLVHRDSIFRSSCEIVSKANCAKLKQGIAVRFHGEEGMGQGVVREWFDILSNEIVNPDYALFTQSYCYVFISIGTTFQPNSNSYVNPDHLNYFRFAGQILGLALNHRQLVNIYFTRSFYKHILGIPVNYQDVASIDPEYAKNLQWILDNDISDLGLELTFSVETDVFGAMEEVPLKPGGGSILVTQNNKAEYVQLVTELRMTRAIQPQINAFLQGFHMFIPPSLIQLFDEYELELLLSGMPEIDVNDWIKNTEYTSGYEREDPVIQWFWEVVEDMTQEERVLLLQFVTGSSRVPHGGFANIMGGSGLQNFTIAAVPYTPNLLPTSSTCINMLKLPEYPSKEILKDRLLVALHCGSYGYTMA | failed |
| MERDLAGRIVALVSPTGLRTSYSYDACGRMVDVTDPAGRVTRYSYTSDFQVATVTYPTGETARYEYDAMGRVVLSHVPGAGVSQYRYDPCGRLVFSCDLVYGQRHFSYDLAGQLVAATNPAGGVSRYGYDRCGRLVTRTDPGGGLTTYQYNECGQMIAATDPLGRVTEYTWDKSGTLAAITRPDGTVVSRRLGPKGVEEYIDDQLVSRILITPTTRTVTIDDYTDPAFPWRHLLGYDPRGLLLTHSVAPVPGDESIVDEGPLTSSEQWWYDAEGRRVRHLTLTGDSIDYAYTNTGVLGSIRHSRLGEVSLEWDAVGRLAKLGSPLDQQQWGYTDGFVTSHTSSRGSTTISRDEMGRVLRVSAPYGDFRYGYDDSGSLTSADGLDGSSRRWVYDTAGRLVTTTCQDAGTSQTCHYDYDLAGELVSTVTQLGPGDSTVETHYRYDPCGRRIEAASSAGMREEFRWDSRGWLAGVMTFRAGRSHEFATHVDAFGCLTDVSGPAGRTPIAWDLATGEPQLVQVGGIPALPLPDGSVLTPVSADSDQDEPWRRPATDPLDPYTLIQEHLTAGISMTGGHLGVAGLAWMGARVYDSTTASFLTIDPLAAPPGSLWEAASYGYAATNPLALADPLGLRPVTDAQMRQFASTIDTRNLWDRHIRNVFSWETLGGVALATAGGLLMCFGAEVPGAMLIGAGGDMVFQQVVRGHVDYGEVALSGALAPTGGSGLSEIAGLGTRTLLTRGIEAGTTQGYVMGNYHWVTSPGPHNAETYLEQVGGETLSGAAFGGITATIGGKTYDALPDSIPTGHFGPHNTILRVGKQPETFIRKYQRNGKLDFGQATSFRGATFKSKIAIKPITTYRSWSDPDYEVGGYVSRTRPAGPLQTQLDLALAPQWGNKANHISEYEIPQFAPFYEGAAGVQPVKAIEDSDTLGQLPGGGNQILITDKQVLDRWKSKK | failed |
| MERDQHIRIIYKLIIVLLVLLIIYVVVQLADLWVPFVYVLKRLLIPLGLAAIITYLFHPLIEAMHRRGMGRGLAVLLVFGAMIALLVCFAVVGAPYVLQQIEELTTSFPTVMKDVEGTVSKMEWQIQQLPHPFHNQAENWLNHLGKKAGNLLGQMERVIVVLIQSMVLLITVPFLVLYFLKDFDLIERAAWYVTPRKWRPSLKRYVRDVDRSFGRYIRGQLLVALSVAVVSMMALWLIGVPYPILLGGFIGATNIIPYFGAFIGAVPALVFAYFESWPVLLATAIALFLLQQLEGNVLSPLIVGHSLHLHPITIILALLVGVEVGGVIGLILAVPILAVLKVTFIHLRLHVSKVDREV | failed |
